Each block holds one molecule with its values, some of them ahead of it.
Experiments:
GFP-14-3-3β = GFP-14-3-3β co-IP with LC-MS/MS, untreated GFP-14-3-3β versus GFP control (14-3-3 interactome); format: binding, human; settings: pairwise comparison untreated GFP-14-3-3β vs GFP, student's t-test; 3 replicates each; LC-MS/MS label-free quantification
[1] = tested on: GFP-14-3-3β and its binding proteins; assay: GFP-14-3-3β co-IP with LC-MS/MS label-free quantification, untreated versus PP1c-treated; parameters: species or system human; settings: for Difference (log2), PP1 vs untreated: pairwise comparison PP1 vs untreated, student's t-test, 3 replicates each, LC-MS/MS label-free quantification

B1: FAM83G (protein, UniProt A6ND36 2-823, looked up)
Protein FAM83G: AFSQVQCLDDNHVNWRSSESKPEFFYSEEQRLALEALVARGRDAFYEVLKRENIRDFLSELELKRILETIEVYDPGSEDPRGTGPSQGPEDNGVGDGEEASGADGVPIEAEPLPSLEYWPQKSDRSIPQLDLGWPDTIAYRGVTRASVYMQPPIDGQAHIKEVVRKMISQAQKVIAVVMDMFTDVDIFKDLLDAGFKRKVAVYIIVDESNVKYFLHMCERACMHLGHLKNLRVRSSGGTEFFTRSATKFKGALAQKFMFVDGDRAVCGSYSFTWSAARTDRNVISVLSGQVVEMFDRQFQELYLMSHSVSLKGIPMEKEPEPEPIVLPSVVPLVPAGTVAKKLVNPKYALVKAKSVDEIAKISSEKQEAKKPLGLKGPALAEHPGELPELLPPIHPGLLHLERANMFEYLPTWVEPDPEPGSDILGYINIIDPNIWNPQPSQMNRIKIRDTSQASAQHQLWKQSQDSRPRPEPCPPPEPSAPQDGVPAENGLPQGDPEPLPPVPKPRTVPVADVLARDSSDIGWVLELPKEEAPQNGTDHRLPRMAGPGHAPLQRQLSVTQDDPESLGVGLPNGLDGVEEEDDDDYVTLSDQDSHSGSSGRGPGPRRPSVASSVSEEYFEVREHSVPLRRRHSEQVANGPTPPPRRQLSAPHITRGTFVGPQGGSPWAQSRGREEADALKRMQAQRSTDKEAQGQQFHHHRVPASGTRDKDGFPGPPRYRSAADSVQSSTRNAGPAMAGPHHWQAKGGQVPRLLPDPGSPRLAQNARPMTDGRATEEHPSPFGIPYSKLSQSKHLKARTGGSQWASSDSKRRAQAPRDRKDP
- Difference (log2), untreated vs GFP (GFP-14-3-3β): 4.695 log2
- Difference ([1]; GFP-14-3-3β co-IP, PP1vsUntrted, Perseus raw output, LFQ intensity difference): -4.783
- Difference (log2), PP1 vs untreated [1]: -4.783 log2

B2: FAM122B (protein, UniProt Q7Z309 2-247, looked up)
PABIR family member 2: AQEKMELDLEPDTSYGGTLRRSSSAPLIHGLSDLSQVFQPYTLRTRRNSTTIMSRHSLEEGLDMVNRETAHEREMQTAMQISQSWDESLSLSDSDFDKPEKLYSPKRIDFTPVSPAPSPTRGFGKMFVSSSGLPPSPVPSPRRFSRRSQSPVKCIRPSVLGPLKRKGEMETESQPKRLFQGTTNMLSPDAAQLSDLSSCSDILDGSSSSSGLSSDPLAKGSATAESPVACSNSCSSFILMDDLSPK
- Difference (log2), untreated vs GFP (GFP-14-3-3β): 4.879 log2
- Difference (log2), PP1 vs untreated [1]: -5.572 log2

B3: CDC25B (protein, UniProt P30305 1-580, looked up)
M-phase inducer phosphatase 2: MEVPQPEPAPGSALSPAGVCGGAQRPGHLPGLLLGSHGLLGSPVRAAASSPVTTLTQTMHDLAGLGSETPKSQVGTLLFRSRSRLTHLSLSRRASESSLSSESSESSDAGLCMDSPSPMDPHMAEQTFEQAIQAASRIIRNEQFAIRRFQSMPVRLLGHSPVLRNITNSQAPDGRRKSEAGSGAASSSGEDKENDGFVFKMPWKPTHPSSTHALAEWASRREAFAQRPSSAPDLMCLSPDRKMEVEELSPLALGRFSLTPAEGDTEEDDGFVDILESDLKDDDAVPPGMESLISAPLVKTLEKEEEKDLVMYSKCQRLFRSPSMPCSVIRPILKRLERPQDRDTPVQNKRRRSVTPPEEQQEAEEPKARVLRSKSLCHDEIENLLDSDHRELIGDYSKAFLLQTVDGKHQDLKYISPETMVALLTGKFSNIVDKFVIVDCRYPYEYEGGHIKTAVNLPLERDAESFLLKSPIAPCSLDKRVILIFHCEFSSERGPRMCRFIRERDRAVNDYPSLYYPEMYILKGGYKEFFPQHPNFCEPQDYRPMNHEAFKDELKTFRLKTRSWAGERSRRELCSRLQDQ
- Difference (log2), untreated vs GFP (GFP-14-3-3β): 4.101 log2
- Difference (log2), PP1 vs untreated [1]: -5.046 log2

B5: NEDD4L (protein, UniProt Q96PU5 2-975, looked up)
E3 ubiquitin-protein ligase …: ATGLGEPVYGLSEDEGESRILRVKVVSGIDLAKKDIFGASDPYVKLSLYVADENRELALVQTKTIKKTLNPKWNEEFYFRVNPSNHRLLFEVFDENRLTRDDFLGQVDVPLSHLPTEDPTMERPYTFKDFLLRPRSHKSRVKGFLRLKMAYMPKNGGQDEENSDQRDDMEHGWEVVDSNDSASQHQEELPPPPLPPGWEEKVDNLGRTYYVNHNNRTTQWHRPSLMDVSSESDNNIRQINQEAAHRRFRSRRHISEDLEPEPSEGGDVPEPWETISEEVNIAGDSLGLALPPPPASPGSRTSPQELSEELSRRLQITPDSNGEQFSSLIQREPSSRLRSCSVTDAVAEQGHLPPPSAPAGRARSSTVTGGEEPTPSVAYVHTTPGLPSGWEERKDAKGRTYYVNHNNRTTTWTRPIMQLAEDGASGSATNSNNHLIEPQIRRPRSLSSPTVTLSAPLEGAKDSPVRRAVKDTLSNPQSPQPSPYNSPKPQHKVTQSFLPPGWEMRIAPNGRPFFIDHNTKTTTWEDPRLKFPVHMRSKTSLNPNDLGPLPPGWEERIHLDGRTFYIDHNSKITQWEDPRLQNPAITGPAVPYSREFKQKYDYFRKKLKKPADIPNRFEMKLHRNNIFEESYRRIMSVKRPDVLKARLWIEFESEKGLDYGGVAREWFFLLSKEMFNPYYGLFEYSATDNYTLQINPNSGLCNEDHLSYFTFIGRVAGLAVFHGKLLDGFFIRPFYKMMLGKQITLNDMESVDSEYYNSLKWILENDPTELDLMFCIDEENFGQTYQVDLKPNGSEIMVTNENKREYIDLVIQWRFVNRVQKQMNAFLEGFTELLPIDLIKIFDENELELLMCGLGDVDVNDWRQHSIYKNGYCPNHPVIQWFWKAVLLMDAEKRIRLLQFVTGTSRVPMNGFAELYGSNGPQLFTIEQWGSPEKLPRAHTCFNRLDLPPYETFEDLREKLLMAVENAQGFEGVD
- Difference (log2), untreated vs GFP (GFP-14-3-3β): 4.407 log2
- Difference (log2), PP1 vs untreated [1]: -5.048 log2

Now from value to molecule, other results behind:

- Difference (log2), PP1 vs untreated [1]: -4.778 log2
B4: PPP1R3D (protein, UniProt O95685 1-299, looked up)
Protein phosphatase 1 …: MSRGPSSAVLPSALGSRKLGPRSLSCLSDLDGGVALEPRACRPPGSPGRAPPPTPAPSGCDPRLRPIILRRARSLPSSPERRQKAAGAPGAACRPGCSQKLRVRFADALGLELAQVKVFNAGDDPSVPLHVLSRLAINSDLCCSSQDLEFTLHCLVPDFPPPVEAADFGERLQRQLVCLERVTCSDLGISGTVRVCNVAFEKQVAVRYTFSGWRSTHEAVARWRGPAGPEGTEDVFTFGFPVPPFLLELGSRVHFAVRYQVAGAEYWDNNDHRDYSLTCRNHALHMPRGECEESWIHFI
- Difference (log2), untreated vs GFP (GFP-14-3-3β): 3.78 log2

- Difference (log2), PP1 vs untreated [1]: -4.694 log2
B6: TP53BP2 (protein, UniProt Q13625 1-1128, looked up)
Apoptosis-stimulating of p53 …: MMPMFLTVYLSNNEQHFTEVPVTPETICRDVVDLCKEPGESDCHLAEVWCGSERPVADNERMFDVLQRFGSQRNEVRFFLRHERPPGRDIVSGPRSQDPSLKRNGVKVPGEYRRKENGVNSPRMDLTLAELQEMASRQQQQIEAQQQLLATKEQRLKFLKQQDQRQQQQVAEQEKLKRLKEIAENQEAKLKKVRALKGHVEQKRLSNGKLVEEIEQMNNLFQQKQRELVLAVSKVEELTRQLEMLKNGRIDSHHDNQSAVAELDRLYKELQLRNKLNQEQNAKLQQQRECLNKRNSEVAVMDKRVNELRDRLWKKKAALQQKENLPVSSDGNLPQQAASAPSRVAAVGPYIQSSTMPRMPSRPELLVKPALPDGSLVIQASEGPMKIQTLPNMRSGAASQTKGSKIHPVGPDWSPSNADLFPSQGSASVPQSTGNALDQVDDGEVPLREKEKKVRPFSMFDAVDQSNAPPSFGTLRKNQSSEDILRDAQVANKNVAKVPPPVPTKPKQINLPYFGQTNQPPSDIKPDGSSQQLSTVVPSMGTKPKPAGQQPRVLLSPSIPSVGQDQTLSPGSKQESPPAAAVRPFTPQPSKDTLLPPFRKPQTVAASSIYSMYTQQQAPGKNFQQAVQSALTKTHTRGPHFSSVYGKPVIAAAQNQQQHPENIYSNSQGKPGSPEPETEPVSSVQENHENERIPRPLSPTKLLPFLSNPYRNQSDADLEALRKKLSNAPRPLKKRSSITEPEGPNGPNIQKLLYQRTTIAAMETISVPSYPSKSASVTASSESPVEIQNPYLHVEPEKEVVSLVPESLSPEDVGNASTENSDMPAPSPGLDYEPEGVPDNSPNLQNNPEEPNPEAPHVLDVYLEEYPPYPPPPYPSGEPEGPGEDSVSMRPPEITGQVSLPPGKRTNLRKTGSERIAHGMRVKFNPLALLLDSSLEGEFDLVQRIIYEVDDPSLPNDEGITALHNAVCAGHTEIVKFLVQFGVNVNAADSDGWTPLHCAASCNNVQVCKFLVESGAAVFAMTYSDMQTAADKCEEMEEGYTQCSQFLYGVQEKMGIMNKGVIYALWDYEPQNDDELPMKEGDCMTIIHREDEDEIEWWWARLNDKEGYVPRNLLGLYPRIKPRQRSLA
- Difference (log2), untreated vs GFP (GFP-14-3-3β): 3.807 log2

- Difference (log2), PP1 vs untreated [1]: -5.566 log2
B7: PPFIBP1 (protein, UniProt Q86W92 1-1011, looked up)
Liprin-beta-1: MMSDASDMLAAALEQMDGIIAGSKALEYSNGIFDCQSPTSPFMGSLRALHLVEDLRGLLEMMETDEKEGLRCQIPDSTAETLVEWLQSQMTNGHLPGNGDVYQERLARLENDKESLVLQVSVLTDQVEAQGEKIRDLEFCLEEHREKVNATEEMLQQELLSRTSLETQKLDLMAEISNLKLKLTAVEKDRLDYEDKFRDTEGLIQEINDLRLKVSEMDSERLQYEKKLKSTKSLMAKLSSMKIKVGQMQYEKQRMEQKWESLKDELASLKEQLEEKESEVKRLQEKLVCKMKGEGVEIVDRDIEVQKMKKAVESLMAANEEKDRKIEDLRQCLNRYKKMQDTVVLAQGKDGEYEELLNSSSISSLLDAQGFSDLEKSPSPTPVMGSPSCDPFNTSVPEEFHTTILQVSIPSLLPATVSMETSEKSKLTPKPETSFEENDGNIILGATVDTQLCDKLLTSSLQKSSSLGNLKKETSDGEKETIQKTSEDRAPAESRPFGTLPPRPPGQDTSMDDNPFGTRKVRSSFGRGFFKIKSNKRTASAPNLAETEKETAEHLDLAGASSRPKDSQRNSPFQIPPPSPDSKKKSRGIMKLFGKLRRSQSTTFNPDDMSEPEFKRGGTRATAGPRLGWSRDLGQSNSDLDMPFAKWTKEQVCNWLMEQGLGSYLNSGKHWIASGQTLLQASQQDLEKELGIKHSLHRKKLQLALQALGSEEETNHGKLDFNWVTRWLDDIGLPQYKTQFDEGRVDGRMLHYMTVDDLLSLKVVSVLHHLSIKRAIQVLRINNFEPNCLRRRPSDENTIAPSEVQKWTNHRVMEWLRSVDLAEYAPNLRGSGVHGGLMVLEPRFNVETMAQLLNIPPNKTLLRRHLATHFNLLIGAEAQHQKRDAMELPDYVLLTATAKVKPKKLAFSNFGNLRKKKQEDGEEYVCPMELGQASGSASKKGFKPGLDMRLYEEDDLDRLEQMEDSEGTVRQIGAFSEGINNLTHMLKEDDMFKDFAARSPSASITDEDSNV
- Difference (log2), untreated vs GFP (GFP-14-3-3β): 6.964 log2
